For 2 molecules, Kd results are on record in publication PMC5390017.

Experiment [1] has as its target tau phosphopeptide 194-212 phosphorylated at S202 and T205 (human) (UniProt P10636). As to the kind of experiment: ITC; MicroCal Auto iTC200, in solution; peptide ~40 µM, mAb 200 µM, 20 steps of 2 µl; fitted to a single set of sites, mAb:tau peptide = 1:2. For orientation: ITC needs no label: the signal is the heat of the interaction.
In experiment [2] the target is tau phosphopeptide of the C-terminal domain phosphorylated at S422 (cognate peptide of CBTAU-22.1) (human). Described as above.
tau phosphopeptide of the C-terminal domain phosphorylated at S422 (cognate peptide of CBTAU-22.1) (human), sequence (P10636 721-746): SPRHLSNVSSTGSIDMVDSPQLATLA

B1: CBTAU-7.1 (human IgG1) (antibody, V domains shown)
VH: QVQLVESGGGLVQPGGSLRLSCAASGFTFSSYWMHWVRQAPGKGLVWVSRINSDGSDTNYADSVKGRFTFSRDNAKNTLYLQMTSLRAEDTAIYYCTRGRSYGFFDYWGQGALVTVSS
VL: DIVMTQSPDTLSLSPGERATLSCRASQIISSNYLAWYQQQPGQAPRLLIYGASSRATGIPDRFSGSGSATDFTLTISRLEPEDFAVYYCQQYGTSPRTFGQGTKLEIK
With B1, the Kd (commonly the constant that tells how readily two partners part at equilibrium) in experiment [1] turned out to be 5.8 µM.

B2: CBTAU-22.1 (human IgG1) (antibody, V domains shown)
VH: QVQLVQSGAEVKKPGAPVKVSCETSGYRFSDYNVHWVRQAPGQGPEWIGRISPNSGGTKYAQKFQGRVTMTRDMSMNTAYMELSGLRSDDTAVYYCVRGHCDGTTCSRAYWGQGTLVTVSS
VL: DVVMTQSPLSLPVTPGEPASISCRSSQSLLHRSGHKYLHWYLQRPGQSPQVLIYLGSNRASGVPDRFSGSGSGTDFTLKISRVEAEDVGLYYCMQTLQTPWTFGQGTKVEIK
Turning to B2, in experiment [2], the Kd came to 32.7 µM.
